Experimental data as given in US20040009892A1, “Method for the identification and use of substances that modulate POD function and/or structure” (The Salk Institute for Biological Studies, priority 1997, published 2004).

System: Hep-2 cells
Assay: Immunofluorescence localization of PML and DipA in Hep-2 cells
Format: cell-based
Settings: 5 μg of gamma interferon for 18 hrs before fixation
Protocol: Hep-2 cells were grown in round coverslips and maintained in DMEM supplemented with 10% fetal calf serum in a humidified atmosphere containing 5% CO2. Cells were treated with 5 μg of gamma interferon (Biosource) or mocked treated for 18 hrs before fixation. Cells were fixed by one of two methods. In a first method, the cells were fixed at room temperature for 5 min with freshly prepared 1% paraformaldehyde in PBS, washed with PBS, and permeabilized for 20 min on ice with 0.2% Triton X-100 in PBS (v/v) (Sigma Chemical Co.). Antigen localization (PML and DipA) was determined after incubation of permeabilized cells with rabbit antiserum (DipA Ab) and a specific PML mab diluted in PBS for 1 hr at RT. Cells were double labeled with the respective second antibodies labeled either with FITC or Texas red, using FITC for the structures with the lowest staining intensity.
Alternatively, cells were fixed at −20° C. for 5 min with fresh and cold acetone followed by fresh and cold absolute methanol.
The cells were incubated with the first Ab diluted in PBS-10% calf serum for two hrs at RT in a humidified chamber. Coverslips were washed for 10 min in PBS 0.05% Tween 20. […]
Fluorescence images were analyzed using either the Leica confocal scanning microscope or a Nikon Microphot-SA immunofluorescence microscope. […]

B1: interferon gamma: gamma interferon (Biosource) used to treat Hep-2 cells (protein, UniProt P01579 24-161, looked up)
Interferon gamma: QDPYVKEAENLKKYFNAGHSDVADNGTLFLGILKNWKEESDRKIMQSQIVSFYFKLFKNFKDDQSIQKSVETIKEDMNVKFFNSNKKKRDDFEKLTNYSVTDLNVQRKAIHELIQVMAELSPAAKTGKRKRSQMLFRG
co-localization of PML and DipA in the POD structures: increased co-localization of PML and DipA in the POD structures
